Article PMC3264566, “Structure-Function Studies of DNA Binding Domain of Response Regulator KdpE Reveals Equal Affinity Interactions at DNA Half-Sites”

Columns and labels:
Conditions in all cases: protein: recombinant; tags: N-terminal His-tag removed with TEV; chain copies: 2; blunt
[1] = molecular target: T1, KdpE DBD (KdpEDBD) (Escherichia coli str. K-12 substr. …, UniProt P21866 124-225); experiment: AUC sedimentation equilibrium; S2 half-site only, 1:1, AB model; AUC: 50 mM HEPES pH 7.4, 150 mM KCl, 1 mM EDTA, 20 C, DNA 0.5 uM in SV; EMSA: 10 mM Tris pH 8.0, 50 mM NaCl, 5% glycerol, 0.1% Triton X-100, 10 mM DTT, 1 mM EDT
T1 sequence: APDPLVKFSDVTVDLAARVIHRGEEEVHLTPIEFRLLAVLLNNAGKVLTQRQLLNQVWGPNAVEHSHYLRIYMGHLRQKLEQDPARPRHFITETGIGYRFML

[2] = molecular target: T1, KdpE DBD (KdpEDBD); experiment: EMSA; minimal 21 bp; AUC: 50 mM HEPES pH 7.4, 150 mM KCl, 1 mM EDTA, 20 C, DNA 0.5 uM in SV; EMSA: 10 mM Tris pH 8.0, 50 mM NaCl, 5% glycerol, 0.1% Triton X-100, 10 mM DTT, 1 mM EDT
[3] = molecular target: T1, KdpE DBD (KdpEDBD); experiment: AUC sedimentation equilibrium; first binding event, ABB model (macroscopic; upper limit); AUC: 50 mM HEPES pH 7.4, 150 mM KCl, 1 mM EDTA, 20 C, DNA 0.5 uM in SV; EMSA: 10 mM Tris pH 8.0, 50 mM NaCl, 5% glycerol, 0.1% Triton X-100, 10 mM DTT, 1 mM EDT
[4] = molecular target: T1, KdpE DBD (KdpEDBD); experiment: AUC sedimentation velocity (Sw isotherm); two-site model, Kd1; AUC: 50 mM HEPES pH 7.4, 150 mM KCl, 1 mM EDTA, 20 C, DNA 0.5 uM in SV; EMSA: 10 mM Tris pH 8.0, 50 mM NaCl, 5% glycerol, 0.1% Triton X-100, 10 mM DTT, 1 mM EDT
[5] = molecular target: T1, KdpE DBD (KdpEDBD); experiment: AUC sedimentation equilibrium; S1 half-site only, 1:1, AB model; AUC: 50 mM HEPES pH 7.4, 150 mM KCl, 1 mM EDTA, 20 C, DNA 0.5 uM in SV; EMSA: 10 mM Tris pH 8.0, 50 mM NaCl, 5% glycerol, 0.1% Triton X-100, 10 mM DTT, 1 mM EDT

B1: kdpFABCBS-1 (dsDNA)
DNA 1: CATTCCTATACTTTTTTTACACCCCGCCCG
DNA 2: CGGGCGGGGTGTAAAAAAAGTATAGGAATG
Kd [1]: 200 ± 100 nM

B2: kdpFABCBS 5'del1,3'del8 (21 bp) (dsDNA)
DNA 1: ATTTTTATACTTTTTTTACAC
DNA 2: GTGTAAAAAAAGTATAAAAAT
binding result [2]: binds

B3: kdpFABCBS 30 bp (dsDNA)
DNA 1: CATTTTTATACTTTTTTTACACCCCGCCCG
DNA 2: CGGGCGGGGTGTAAAAAAAGTATAAAAATG
Kd [3]: 80 ± 25 nM | Kd [4]: 90 nM

B4: kdpFABCBS-7 (dsDNA)
DNA 1: CATTTTTATACTTTTTCCACACCCCGCCCG
DNA 2: CGGGCGGGGTGTGGAAAAAGTATAAAAATG
Kd [5]: 350 ± 100 nM
